We go through nine molecules from patent US20180155451A1 (published 2018).

Assay [1] addresses T1, FcγRIIb extracellular domain with C-terminal His tag (human, UniProt P31994 43-217).
T1 construct: extracellular domain; also called FcgRIIb; 2b; not shown: His tag attached to the C terminus
T1 sequence (looked up): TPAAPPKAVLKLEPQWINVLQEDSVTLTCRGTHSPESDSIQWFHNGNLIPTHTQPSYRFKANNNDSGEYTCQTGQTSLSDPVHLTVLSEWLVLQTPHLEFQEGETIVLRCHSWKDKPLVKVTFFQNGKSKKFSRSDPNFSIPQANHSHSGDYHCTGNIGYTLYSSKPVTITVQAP
As to the kind of experiment: SPR (Biacore), relative binding.

The target in assay [2] is T2, FcγRIIIa extracellular domain with C-terminal His tag (human, UniProt P08637 17-208).
T2 construct: extracellular domain; also called FcgRIIIa; 3a; not shown: His tag attached to the C terminus
T2 sequence (P08637 17-208): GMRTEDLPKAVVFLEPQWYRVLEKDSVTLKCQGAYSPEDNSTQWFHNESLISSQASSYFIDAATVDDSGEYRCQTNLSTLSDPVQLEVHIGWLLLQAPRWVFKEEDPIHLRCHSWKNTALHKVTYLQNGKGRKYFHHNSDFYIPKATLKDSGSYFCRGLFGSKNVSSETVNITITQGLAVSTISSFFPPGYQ
Description: SPR (Biacore), relative binding.

In assay [3] the target is T2, FcγRIIIa extracellular domain with …. Description: SPR (Biacore); He/Con_3a divided by He/Con_2b (reference: binding to FcγRIIb). A digest of the protocol: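 First, antigen peptide is immobilized on a CM5 chip by amine coupling or, biotinylated, on an SA chip. Next, the antibody is captured and FcγR diluted in running buffer HBS-EP+ is passed over at 25° C. Finally, 10 mM glycine-HCl, pH 1.5 strips the antibody.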

Assay [4] deals with T3, FcγRIa extracellular domain with C-terminal His tag (human, UniProt P12314 16-292).
T3 construct: extracellular domain; soluble analyte in Biacore; also called FcgRI; CD64
T3 sequence (P12314 16-292): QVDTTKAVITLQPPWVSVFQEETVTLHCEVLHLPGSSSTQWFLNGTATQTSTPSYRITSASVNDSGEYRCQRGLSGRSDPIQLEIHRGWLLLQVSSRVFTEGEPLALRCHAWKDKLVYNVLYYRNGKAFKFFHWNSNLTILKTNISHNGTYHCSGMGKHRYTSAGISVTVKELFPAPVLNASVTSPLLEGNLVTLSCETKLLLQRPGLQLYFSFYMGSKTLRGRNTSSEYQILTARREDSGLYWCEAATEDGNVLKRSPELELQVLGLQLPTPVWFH
Description: SPR (Biacore), relative FcγRIa binding, GpH7-B3/GpL16-k0 (HoCon Ab) = 100.

B1: GpH7-A5/GpH7-B3 variant S324_05P/GpL16-k0 (antibody, human IgG1, kappa)
heavy 1: not shown
heavy 2: not shown
light: DIVMTQSPLSLPVTPGEPASISCQASESLVHSNRNTYLHWYLQKPGQSPQLLIYKVSNRFSGVPDRFSGSGSGTDFTLKISRVEAEDVGVYYCSQNTHVPPTFGQGTKVEIERTVAAPSVFIFPPSDEQLKSGTASVVCLLNNFYPREAKVQWKVDNALQSGNSQESVTEQDSKDSTYSLSSTLTLSKADYEKHKVYACEVTHQGLSSPVTKSFNRGEC
notes: Heterodimerized IgG1; alteration in one H chain only; also called He Ab
For B1, the “He/Con_2b (IIb binding)” value in assay [1] is 94.7 % of GpH7-A5/GpH7-B3/GpL16-k0 (=100). The “He/Con_3a (IIIa binding)” value in assay [2] is 65.5 % of GpH7-A5/GpH7-B3/GpL16-k0 (=100). Besides, the “He_3a/2b (IIIa/IIb)” value in assay [3] stood at 0.69 ratio.

B2: GpH7-B3 variant K334_01G/GpL16-k0 (antibody, human IgG1, kappa)
heavy: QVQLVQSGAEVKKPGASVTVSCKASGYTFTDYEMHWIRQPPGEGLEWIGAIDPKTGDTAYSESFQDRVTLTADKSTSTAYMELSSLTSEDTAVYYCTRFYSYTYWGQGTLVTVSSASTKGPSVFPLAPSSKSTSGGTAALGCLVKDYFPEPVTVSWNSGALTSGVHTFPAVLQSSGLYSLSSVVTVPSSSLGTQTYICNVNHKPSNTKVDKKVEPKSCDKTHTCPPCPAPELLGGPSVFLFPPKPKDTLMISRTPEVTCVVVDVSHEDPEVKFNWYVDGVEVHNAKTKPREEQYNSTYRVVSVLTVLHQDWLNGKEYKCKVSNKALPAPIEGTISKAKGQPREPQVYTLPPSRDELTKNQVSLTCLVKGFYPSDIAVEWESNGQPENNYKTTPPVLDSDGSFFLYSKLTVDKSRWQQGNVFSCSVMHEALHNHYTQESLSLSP
light: DIVMTQSPLSLPVTPGEPASISCQASESLVHSNRNTYLHWYLQKPGQSPQLLIYKVSNRFSGVPDRFSGSGSGTDFTLKISRVEAEDVGVYYCSQNTHVPPTFGQGTKVEIERTVAAPSVFIFPPSDEQLKSGTASVVCLLNNFYPREAKVQWKVDNALQSGNSQESVTEQDSKDSTYSLSSTLTLSKADYEKHKVYACEVTHQGLSSPVTKSFNRGEC
notes: homodimerized antibody, mutation in both H chains; also called K334_01G Ho Ab
With B2, the Ho/Con_1a in assay [4] is 106 % of control.

B3: GpH7-A5/GpH7-B3 variant Y300_10E/GpL16-k0 (antibody, human IgG1, kappa)
heavy 1: not shown
heavy 2: not shown
light: DIVMTQSPLSLPVTPGEPASISCQASESLVHSNRNTYLHWYLQKPGQSPQLLIYKVSNRFSGVPDRFSGSGSGTDFTLKISRVEAEDVGVYYCSQNTHVPPTFGQGTKVEIERTVAAPSVFIFPPSDEQLKSGTASVVCLLNNFYPREAKVQWKVDNALQSGNSQESVTEQDSKDSTYSLSSTLTLSKADYEKHKVYACEVTHQGLSSPVTKSFNRGEC
notes: as for B1
B3: the “He/Con_2b (IIb binding)” value in assay [1] is 134 % of GpH7-A5/GpH7-B3/GpL16-k0 (=100). In addition, the “He/Con_3a (IIIa binding)” value in assay [2] was 104 % of GpH7-A5/GpH7-B3/GpL16-k0 (=100). In addition, the “He_3a/2b (IIIa/IIb)” value in assay [3] came out at 0.78 ratio.

B4: GpH7-A5/GpH7-B3 variant Y296_01G/GpL16-k0 (antibody, human IgG1, kappa)
heavy 1: not shown
heavy 2: not shown
light: DIVMTQSPLSLPVTPGEPASISCQASESLVHSNRNTYLHWYLQKPGQSPQLLIYKVSNRFSGVPDRFSGSGSGTDFTLKISRVEAEDVGVYYCSQNTHVPPTFGQGTKVEIERTVAAPSVFIFPPSDEQLKSGTASVVCLLNNFYPREAKVQWKVDNALQSGNSQESVTEQDSKDSTYSLSSTLTLSKADYEKHKVYACEVTHQGLSSPVTKSFNRGEC
notes: as for B1
For the molecule B4, the “He/Con_2b (IIb binding)” value in assay [1] was 79.3 % of GpH7-A5/GpH7-B3/GpL16-k0 (=100). Besides, in assay [2], the “He/Con_3a (IIIa binding)” value was 54.5 % of GpH7-A5/GpH7-B3/GpL16-k0 (=100). The “He_3a/2b (IIIa/IIb)” value in assay [3] is 0.69 ratio.

B5: GpH7-B3 variant K326_10E/GpL16-k0 (antibody, human IgG1, kappa)
heavy: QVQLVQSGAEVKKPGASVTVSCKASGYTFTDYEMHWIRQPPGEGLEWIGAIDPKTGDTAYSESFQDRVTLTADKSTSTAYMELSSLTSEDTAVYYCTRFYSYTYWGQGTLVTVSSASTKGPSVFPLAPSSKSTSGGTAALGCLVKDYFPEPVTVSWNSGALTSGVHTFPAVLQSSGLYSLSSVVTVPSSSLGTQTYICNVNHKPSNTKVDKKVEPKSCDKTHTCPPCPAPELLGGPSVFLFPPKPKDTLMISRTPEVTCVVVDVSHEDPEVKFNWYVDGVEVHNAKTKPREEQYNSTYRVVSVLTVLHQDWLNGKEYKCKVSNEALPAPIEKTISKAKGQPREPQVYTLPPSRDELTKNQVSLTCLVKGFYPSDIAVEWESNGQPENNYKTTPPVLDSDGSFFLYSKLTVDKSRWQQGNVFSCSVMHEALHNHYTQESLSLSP
light: DIVMTQSPLSLPVTPGEPASISCQASESLVHSNRNTYLHWYLQKPGQSPQLLIYKVSNRFSGVPDRFSGSGSGTDFTLKISRVEAEDVGVYYCSQNTHVPPTFGQGTKVEIERTVAAPSVFIFPPSDEQLKSGTASVVCLLNNFYPREAKVQWKVDNALQSGNSQESVTEQDSKDSTYSLSSTLTLSKADYEKHKVYACEVTHQGLSSPVTKSFNRGEC
notes: homodimerized antibody, mutation in both H chains; also called K326_10E Ho Ab
Consider B5, for which the Ho/Con_1a in assay [4] is 105 % of control.

B6: GpH7-B3 variant K326_08L/GpL16-k0 (antibody, human IgG1, kappa)
heavy: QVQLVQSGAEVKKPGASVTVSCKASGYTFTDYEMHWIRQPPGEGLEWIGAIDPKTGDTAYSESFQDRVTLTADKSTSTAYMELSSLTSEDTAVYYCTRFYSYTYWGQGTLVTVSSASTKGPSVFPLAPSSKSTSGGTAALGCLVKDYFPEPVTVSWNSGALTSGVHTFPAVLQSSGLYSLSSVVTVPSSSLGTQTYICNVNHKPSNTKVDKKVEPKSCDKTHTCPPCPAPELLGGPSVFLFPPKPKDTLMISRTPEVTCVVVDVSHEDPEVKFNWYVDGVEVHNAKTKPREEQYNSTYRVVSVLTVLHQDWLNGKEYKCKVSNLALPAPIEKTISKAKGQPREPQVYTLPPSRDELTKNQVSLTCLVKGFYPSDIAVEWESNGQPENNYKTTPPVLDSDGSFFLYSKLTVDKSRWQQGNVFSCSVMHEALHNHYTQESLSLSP
light: DIVMTQSPLSLPVTPGEPASISCQASESLVHSNRNTYLHWYLQKPGQSPQLLIYKVSNRFSGVPDRFSGSGSGTDFTLKISRVEAEDVGVYYCSQNTHVPPTFGQGTKVEIERTVAAPSVFIFPPSDEQLKSGTASVVCLLNNFYPREAKVQWKVDNALQSGNSQESVTEQDSKDSTYSLSSTLTLSKADYEKHKVYACEVTHQGLSSPVTKSFNRGEC
notes: homodimerized antibody, mutation in both H chains; also called K326_08L Ho Ab
With B6, the Ho/Con_1a in assay [4] is 101 % of control.

B7: GpH7-A5/GpH7-B3 variant Y296_18N/GpL16-k0 (antibody, human IgG1, kappa)
heavy 1: not shown
heavy 2: not shown
light: DIVMTQSPLSLPVTPGEPASISCQASESLVHSNRNTYLHWYLQKPGQSPQLLIYKVSNRFSGVPDRFSGSGSGTDFTLKISRVEAEDVGVYYCSQNTHVPPTFGQGTKVEIERTVAAPSVFIFPPSDEQLKSGTASVVCLLNNFYPREAKVQWKVDNALQSGNSQESVTEQDSKDSTYSLSSTLTLSKADYEKHKVYACEVTHQGLSSPVTKSFNRGEC
notes: as for B1
Take B7: the “He/Con_2b (IIb binding)” value in assay [1] is 91.5 % of GpH7-A5/GpH7-B3/GpL16-k0 (=100). Moreover, the “He/Con_3a (IIIa binding)” value in assay [2] was 72.1 % of GpH7-A5/GpH7-B3/GpL16-k0 (=100). For the same molecule, the “He_3a/2b (IIIa/IIb)” value in assay [3] amounted to 0.79 ratio.

B8: GpH7-B3 variant K326_07I/GpL16-k0 (antibody, human IgG1, kappa)
heavy: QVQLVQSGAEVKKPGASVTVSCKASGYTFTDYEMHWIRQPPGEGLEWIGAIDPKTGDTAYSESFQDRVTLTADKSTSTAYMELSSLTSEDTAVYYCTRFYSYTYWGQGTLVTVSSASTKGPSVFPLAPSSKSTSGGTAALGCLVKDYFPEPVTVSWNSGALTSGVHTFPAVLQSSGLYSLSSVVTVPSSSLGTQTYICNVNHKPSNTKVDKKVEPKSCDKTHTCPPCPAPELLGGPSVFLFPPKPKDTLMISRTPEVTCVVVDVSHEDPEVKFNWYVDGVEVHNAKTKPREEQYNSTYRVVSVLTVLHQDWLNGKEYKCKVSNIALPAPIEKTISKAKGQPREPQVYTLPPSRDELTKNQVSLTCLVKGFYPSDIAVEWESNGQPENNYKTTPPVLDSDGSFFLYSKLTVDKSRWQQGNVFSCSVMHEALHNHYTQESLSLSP
light: DIVMTQSPLSLPVTPGEPASISCQASESLVHSNRNTYLHWYLQKPGQSPQLLIYKVSNRFSGVPDRFSGSGSGTDFTLKISRVEAEDVGVYYCSQNTHVPPTFGQGTKVEIERTVAAPSVFIFPPSDEQLKSGTASVVCLLNNFYPREAKVQWKVDNALQSGNSQESVTEQDSKDSTYSLSSTLTLSKADYEKHKVYACEVTHQGLSSPVTKSFNRGEC
notes: homodimerized antibody, mutation in both H chains; also called K326_07I Ho Ab
Regarding B8, in assay [4], the Ho/Con_1a was 102 % of control.

B9: GpH7-B3 variant I336_15Y/GpL16-k0 (antibody, human IgG1, kappa)
heavy: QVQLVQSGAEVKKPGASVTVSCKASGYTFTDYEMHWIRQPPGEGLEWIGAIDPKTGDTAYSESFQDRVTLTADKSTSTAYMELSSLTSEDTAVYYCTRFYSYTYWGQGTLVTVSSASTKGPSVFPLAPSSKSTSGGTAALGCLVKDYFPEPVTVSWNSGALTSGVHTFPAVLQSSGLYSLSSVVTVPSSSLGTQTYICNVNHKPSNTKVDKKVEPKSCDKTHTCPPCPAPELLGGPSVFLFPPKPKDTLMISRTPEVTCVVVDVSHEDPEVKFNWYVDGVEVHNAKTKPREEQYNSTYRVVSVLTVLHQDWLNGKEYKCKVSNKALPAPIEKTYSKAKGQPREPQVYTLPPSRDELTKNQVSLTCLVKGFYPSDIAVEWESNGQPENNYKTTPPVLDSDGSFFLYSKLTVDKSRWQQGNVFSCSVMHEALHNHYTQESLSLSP
light: DIVMTQSPLSLPVTPGEPASISCQASESLVHSNRNTYLHWYLQKPGQSPQLLIYKVSNRFSGVPDRFSGSGSGTDFTLKISRVEAEDVGVYYCSQNTHVPPTFGQGTKVEIERTVAAPSVFIFPPSDEQLKSGTASVVCLLNNFYPREAKVQWKVDNALQSGNSQESVTEQDSKDSTYSLSSTLTLSKADYEKHKVYACEVTHQGLSSPVTKSFNRGEC
notes: homodimerized antibody, mutation in both H chains; also called I336_15Y Ho Ab
As to B9, the Ho/Con_1a in assay [4] is 110 % of control.
